The conditions of the series: Escherichia coli (strain K12), pH 5.5, CD, Potassium phosphate 2 mM, KF 5 mM, reversible: yes, whole UniProt chain shown.

B1: Ribonuclease HI wild type, P0A7Y4 (protein)
chain: MLKQVEIFTDGSCLGNPGPGGYGAILRYRGREKTFSAGYTRTTNNRMELMAAIVALEALKEHCEVILSTDSQYVRQGITQWIHNWKKRGWKTADKKPVKNVDLWQRLDAALGQHQIKWEWVKGHAGHPENERCDELARAAAMNPTLEDTGYQVEV
One may read the Tm as the temperature at the midpoint of the melting transition. Consider B1, for which, where the note is “25 °C, Urea”, the denaturant m value worked out at 2.1 kcal/mol/M and the unfolding free energy is 9.7 kcal/mol. Besides, where the note is “Thermal”, the Tm was 47.8 °C.

(Values after FireProtDB (doi:10.1038/12277).)
